In experiment [1] the target is T1, human Tim-3 on cells (Tim-3 DO11.10 cells, a human Tim-3 expressing DO11.10 cell line) (human, UniProt Q8TDQ0 22-301). As to the kind of experiment: cell-based or functional assay.
Experiment [2] addresses T2, human Tim-3-Fc (R&D Systems) (human, UniProt Q8TDQ0 22-130, biotinylated in the phosphatidylserine assay; ruthenylated (sulfo-tag NHS-ester) in the galectin-9 assay).
T2 construct: Bought from R&D Systems; also called hTIM-3-Fc; hTIM-3-Fc Biotin; not shown: Fc part of the bought fusion protein
The experiment can be described thus: ELISA, plate coated with human Tim-3-Fc.

The target of experiment [3] is T1, human Tim-3 on cells (Tim-3 DO11.10 …). The experiment can be described thus: flow cytometry, A488-labelled antibody on Tim-3 DO11.10 cells. For orientation: In flow cytometry, cells or beads pass a laser one at a time.
The target of experiment [4] is T2, human Tim-3-Fc (R&D Systems). The experiment can be described thus: MSD blocking assay, ruthenylated hTim-3-Fc binding to plate-bound galectin-9-biotin.
In experiment [5] the target is T3, human Tim-3-IgV-Fc single arm antigen (SAG) (human, UniProt Q8TDQ0 22-130).
T3 construct: Single arm format: the second (Fc only) chain is not described; also called Tim-3 SAG; not shown: Fc part
As to the kind of experiment: SPR, Biacore T100, antibody captured by Human Fab Binder, Tim-3 SAG as analyte, 1:1 Langmuir with mass transport. (In general: In SPR one partner is held on a chip, and binding of the other changes the refractive index at the surface.)

For experiment [6], the target named is T2, human Tim-3-Fc (R&D Systems). The experiment can be described thus: flow cytometry, blocking of biotinylated hTIM-3-Fc binding to phosphatidylserine on camptothecin-treated DO11.10 cells; blocking of hTIM-3-Fc Biotin binding to phosphatidylserine on camptothecin-treated DO11.10 cells.
Experiment [7] concerns the target T4, hTim-3-IgV-FLAG (human, UniProt Q8TDQ0 22-130, density indicating glycosylation at Asn99).
T4 construct: Purified from 293HEK supernatant with anti-FLAG resin; also called hTim-3-FLAG; not shown: FLAG tag
The experiment can be described thus: SPR, Biacore T200, Fab captured, hTim-3-IgV-FLAG as analyte, HBS-EP, 25 C, 1:1 binding.

B1: Antibody A (antibody, human IgG1, kappa, V domains shown)
VH: EVQLLESGGGLVQPGGSLRLSCAASGFTFSSYYMSWVRQAPGKGLEWVSAISGSGGSTYYADSVKGRFTISRDNSKNTLYLQMNSLRAEDTAVYYCARYARTAFDLWGQGTLVTVSS
VL: DIVMTQSPSSLSASVGDGVTITCQASQDIYNYLNWYQQKPGKAPKLLIYAASSLQSGVPSRFSGSGSGTDFTLTISSLQPEDFATYYCQQANSFPPTFGQGTKLEIKR
notes: also called anti-human Tim-3; Antiboby A
For the molecule B1, the “EC50 (nM), IL-2 production of hTim-3 DO11.10 cells with A20 cells and OVA peptide” value (“EC50 (nM), IL-2 production” for short) in experiment [1] turned out to be 3.71 nM. The molecule also came in with an EC50 in experiment [2] of 0.0207 nM. For the same molecule, in experiment [3], the EC50 was 0.09 nM. This molecule displayed an IC50 in experiment [4] of 5.6 nM. For the same molecule, in experiment [5], the Kd is 0.398 nM, the koff amounted to 0.000927 s⁻¹ and the kon is 2.33e+06 M⁻¹ s⁻¹. The molecule further had an IC50 in experiment [6] of 0.32 nM.

B2: Antibody B (antibody, human IgG1, kappa, V domains shown)
VH: EVQLLESGGGLVQPGGSLRLSCAASGFSFSSFYFSWVRQAPGKGLEWVSAISGNGRSTYYADSVKGRFTISRDNSKNTLYLQMNSLRAEDTAVYYCARYYNTGFDLWGQGTLVTVSS
VL: DIVMTQSPSSLSASVGDGVTITCQASEAIYGYLNWYQQKPGKAPKLLIYAASSLPIGVPSRFSGSGSGTDFTLTISSLQPEDFATYYCQQAYGFPPTFGQGTKLEIKR
For the molecule B2, the “EC50 (nM), IL-2 production” value in experiment [1] stood at 6.08 nM. In experiment [5], this molecule gave a Kd of 0.158 nM, a koff of 0.000106 s⁻¹ and a kon of 675000 M⁻¹ s⁻¹.

B3: Antibody A-Fab (Fab, V domains shown)
VH: EVQLLESGGGLVQPGGSLRLSCAASGFTFSSYYMSWVRQAPGKGLEWVSAISGSGGSTYYADSVKGRFTISRDNSKNTLYLQMNSLRAEDTAVYYCARYARTAFDLWGQGTLVTVSS
VL: DIVMTQSPSSLSASVGDGVTITCQASQDIYNYLNWYQQKPGKAPKLLIYAASSLQSGVPSRFSGSGSGTDFTLTISSLQPEDFATYYCQQANSFPPTFGQGTKLEIKR
notes: Made by clipping Antibody A with immobilized papain; also called Fab for Antibody A
In experiment [7], B3 displayed a Kd of 7.92 nM, a koff of 0.00286 s⁻¹ and a kon of 362000 M⁻¹ s⁻¹.

B4: Antibody C (antibody, human IgG1, kappa, V domains shown)
VH: EVQLLESGGGLVQPGGSLRLSCAASGFTFSSYYMSWVRQAPGKGLEWVSAISGNGKSTYYADSVKGRFTISRDNSKNTLYLQMNSLRAEDTAVYYCARYYNTGFDLWGQGTLVTVSS
VL: DIVMTQSPSSLSASVGDGVTITCQASQDIYNYLNWYQQKPGKAPKLLIYYASSIVSGVPSRFSGSGSGTDFTLTISSLQPEDFATYYCQQANSFPPTFGQGTKLEIKR
With B4, the “EC50 (nM), IL-2 production” value in experiment [1] is 3.35 nM. Further, in experiment [5], the Kd is 0.173 nM, the koff amounted to 0.000138 s⁻¹ and the kon amounted to 797000 M⁻¹ s⁻¹.

A word on the EC50: it is the midpoint of the concentration-response curve. For orientation: IC50 means the point on the concentration scale where inhibition reaches its midpoint. High values mean a need for much substance, low ones inhibition by little substance. What is called Kd is the constant that tells how readily two partners part at equilibrium. Low readings indicate a tighter complex, high ones a looser complex. For orientation: koff means a measure of how fast the partners let go of each other. A high value points to a short-lived complex. The kon is the rate constant with which the complex forms. A lower kon goes with slower complex formation.

Values taken from patent US20180057591A1 (Eli Lilly, published 2018).
